The record followed here is patent US12144869B2, “Anti-ROR1 antibody conjugates, compositions comprising anti ROR1 antibody conjugates, and methods of making and using anti-ROR1 antibody conjugates” (Sutro Biopharma, Inc., priority 2022, dated 2024).

Series [1] relates to ROR1 positive Ntera-2 cell. Put plainly: In vitro cell killing of ROR1 ADCs on Ntera-2. Type of series: cell-based. Particulars: for EC50: NTERA2, read-out: NTERA-2 EC50. The protocol: (§1) Anti-ROR1 antibody was conjugated to different linker-warheads described herein at different DARs and the cell killing activity of the ADCs were evaluated on ROR1 positive Ntera-2 cell and ROR1 negative MCF7 cells.
(§2) Ntera-2 or MCF7 cell at 625 cells/25 μL were seeded in a 384-well flat bottom white polystyrene plate one day before the assay start. ADCs were formulated at 2× starting concentration. Filter sterilized samples were serial diluted (1:3) under sterile conditions and added onto cells in triplicates. Plates were cultured at 37° C. in a CO2 incubator for 120 hours. For cell viability measurement, 30 microliter of Cell Titer-Glo® reagent (Promega Corp, Madison, WI) was added into each well, and plates processed as per product instructions. Relative luminescence was measured on an ENVISION® plate reader (Perkin-Elmer; Waltham, MA). Relative luminescence readings were converted to % viability using untreated cells as controls. Data was fitted with non-linear regression analysis, using log (inhibitor) vs. response, variable slope, 4-parameter fit equation using GraphPad Prism.
To evaluate if the cell killing activity of anti-ROR1 ADCs is dependent on antibody binding to ROR1 expressed on cell surface, the same linker-warheads (LP3, LP4) were conjugated to an anti-GFP antibody and the cell killing of the anti-ROR1 and anti-GFP ADCs were evaluated in cell killing assays on ROR1 positive Ntera-2 cell and ROR1 negative MCF7 cells. […]

The subject of series [2] is ROR1 negative MCF7 cells. Put plainly: In vitro cell killing of ROR1 ADCs on MCF7. Type of series: cell-based. Particulars: for EC50: Homo sapiens, read-out: MCF-7 EC50. How it is done:
as §1, §2
To evaluate if the cell killing activity of anti-ROR1 ADCs is dependent on antibody binding to ROR1 expressed on cell surface, the same linker-warheads (LP3, LP4) were conjugated to an anti-GFP antibody and the cell killing of the anti-ROR1 and anti-GFP ADCs were evaluated in cell killing assays on ROR1 positive Ntera-2 cell and ROR1 negative MCF7 cells.

The nature of series [3]: Differential scanning fluorimetry (protein thermal shift; TM1/TM2). The note with it: Table 11; melting temperature of the Fab domain. It is filed as physicochemical. The protocol: A protein thermal shift assay was carried out by mixing the protein to be assayed with an environmentally sensitive dye (SYPRO Orange, Life Technologies Cat #S-6650) in a phosphate buffered solution (PBS), and monitoring the fluorescence of the mixture in real time as it underwent controlled thermal denaturation. Protein solutions between 0.2-2 mg/mL were mixed at a 1-1 volumetric ratio with a 1-500 PBS-diluted solution of SYPRO Orange (SYPRO Orange stock dye is 5000× in DMSO). 10 μL aliquots of the protein-dye mixture were dispensed in quadruplicate in a 384-well microplate (Bio-Rad Cat #MSP-3852), and the plate was sealed with an optically clear sealing film (Bio-Rad Cat #MSB-1001) and placed in a 384-well plate real-time thermocycler (Bio-Rad CFX384 Real Time System). The protein-dye mixture was heated from […], at increments of 0.1° C. per cycle (˜1.5° C. per minute), allowing 3 seconds of equilibration at each temperature before taking a fluorescence measurement. At the end of the experiment, the transition melting temperatures (TM1 and TM2) were determined using the Bio-Rad CFX manager software. TM1 represents the melting temperature of the Fc domain. TM2 represents the melting temperature of the Fab domain.
For the thermal stability of an antibody, the first melting peak (Tm1) coincides with the unfolding of the CH2 domain (FC stability), while the second melting peak (Tm2) occurs upon unfolding of the Fab domain.
(In general: In DSF a fluorescence change marks the thermal transition of the protein.)

The subject of series [4] is ROR1 or ROR2. Put plainly: ROR2 cross-reactivity ELISA (ROR1/ROR2 signal ratio). Particulars: Table 11; SP34 light chain. Type of series: binding. How it is done: Antibodies were tested for their ability to bind to either ROR1 or ROR2 via ELISA. Briefly, 2 μg/mL of ROR1 or ROR2 (Acro Biosystems) were coated to 384-well polystyrene plates for 1 hr at 30° C. in 0.1 M bicarbonate pH8.9 buffer before they were washed and blocked with 2% BSA in PBST (PBS, 0.1% Tween20) for 1 hr. Antibody variants were diluted to 2.5 μg/mL and further serially diluted 3-fold before 30 μL was applied to the ELISA plates for binding (1 hr at 30° C.). Antibody binding was detected via HRP-conjugated anti-human Fc antibodies (Jackson Immunoresearch) and detection with SuperSignal ELISA Pico Chemiluminescent Substrate (Pierce). Cross-reactivity was reported as a ratio of ROR1-ELISA signal over ROR2-ELISA signal at the highest dilution tested.
A general note: An ELISA detects its analyte on a solid surface through an enzyme-linked reagent.

Series [5] deals with T1, human ROR1-Fz (Homo sapiens, UniProt Q01973).
T1 construct: Frizzled (Fz, residues 165-305); His6 (C); purchased Acro Biosystems; host or cells: HEK293
Put plainly: Biacore off-rate and kinetic analysis, ROR1-Fz. Particulars: Table 11; SP34 light chain. It is filed as binding. How it is done:
(§3) Anti-Fc polyclonal antibodies were immobilized onto a CMS chip (GE Life Sciences) using amine coupling chemistry (from Amine Coupling Kit, GE Life Sciences). The immobilization steps were carried out at a flow rate of 25 μL/min in 1×HBS-EP+buffer (GE Life Sciences; 10× Stock diluted before use). The sensor surfaces were activated for 7 min with a mixture of NHS (0.05 M) and EDC (0.2 M). The Anti-Fc antibodies were injected over all 4 flow cells at a concentration of 25 ug/ml in 10 mM sodium acetate, pH 4.5, for 7 min. Ethanolamine (1 M, pH 8.5) was injected for 7 min to block any remaining activated groups. An average of 12,000 response units (RU) of capture antibody was immobilized on each flow cell.
(§4) Off-rate and kinetic binding experiments were performed at 25° C. using 1×HBS-EP+buffer. Test and control antibodies were injected over the anti-Fc surface at concentrations of 5-10 μg/mL for 12 seconds at a flow rate of 10 μL/min on flow cells 2, 3 and 4, followed by a buffer wash for 30 seconds at the same flow rate. Kinetic characterization of antibody samples was carried out with a range of antigen concentrations from 1-100 nM and 1 injection of 0 nM antigen (for example, 100, 50, 25, 6.25, 1.56 and 0 nM). After capturing ligand (antibody) on the anti-Fc surface, the analyte (hROR1, Fz or Kr domains, Acro Biosystems, Delaware) was bound for 180 seconds, followed by a 600 second dissociation phase at a flow rate of 50 μL/min. Between each ligand capture and analyte binding cycle, regeneration was carried out using 2 injections of 10 mM Glycine pH 2.0 for 30 seconds at 30 μL/min, followed by a 30 second buffer wash step.
(§5) The data was fit with the Biacore T200 Evaluation software, using a 1-1 Langmuir binding model. KD (affinity, nM) was determined as a ratio of the kinetic rate constants calculated from the fits of the association and dissociation phases.
(§6) For anti-CD3-LC-containing IgGs that had detectable ROR1-binding in ELISA (1944-A07 and 1987-C05 variants), those antibodies were further tested for binding by surface plasmon resonance (SPR). Binding kinetics were assessed to the ROR1-frizzled domain (hROR1-Fz) or the ROR1-extracellular domain (hROR1) for 1944-A07 and 1987-C05 variants, respectively. Briefly, anti-ROR1 antibodies were captured via anti-human Fc polyclonal antibodies immobilized to a CM5 chip, and ROR1 recombinant proteins were flowed across the surface to assess binding kinetics. hROR1 or hROR1-Fz domain (Acro Biosystems, Delaware) binding was tested at 100, 50, 25, 6.25, 1.5625 nM. The data was fit with the Biacore™ T200 Evaluation software, using a 1-1 Langmuir binding model. KD (affinity, nM) was determined as a ratio of the kinetic rate constants calculated from the fits of the association and dissociation phases.

Series [6] concerns the target T2, hROR1 (ROR1-extracellular domain) (Homo sapiens, UniProt Q01973).
T2 construct: the ROR1-frizzled domain (hROR1-Fz) or the ROR1-extracellular domain (hROR1); purchased Acro Biosystems
Put plainly: Biacore off-rate and kinetic analysis, hROR1 extracellular domain. Particulars: for KD (SPR binding kinetics): hROR1, 1987-C05 variants. Type of series: binding. The protocol: as §3, §4, §5, §6
(In general: Surface plasmon resonance follows binding to a sensor surface in real time, without labels.)

Where [7] appears, read: Table 13, ROR1 positive Ntera-2, 120 hours.
The mark [8] stands for this setting: Table 15, ROR1 positive Ntera-2 cells, 120 hours, Cell Titer-Glo.
The mark [9] stands for this setting: Table 13, ROR1 negative MCF7, 120 hours.
Where [10] appears, read: Table 15, ROR1 negative MCF7 cells, 120 hours, Cell Titer-Glo.
Setting [11] is: Table 7, sample ROR1 ECD, 1987-C05 HC with different LCs.

Positions count from the first letter of the chain named. Read-outs that look alike come from different tables or passages of the source.

A word on the EC50: it is the concentration that produces a half-maximal response. As for `COc1cccc2c1C(=O)c1c(O)c3c(c(O)c1C2=O)C[C@@](O)(C(=O)NCCN)C[C@@H]3O[C@H]1C[C@H]2[C@H](O[C@@H]3[C@@H](OC)OCCN32)[C@H](C)O1` [PNU-EDA], in series [1] (setting [7]), the concentration for a half-maximal effect (EC50) was found to be 0.026 nM and the “NTERA-2 Span” value came to 99%. In addition, in series [1] (setting [8]), the EC50 was determined as 0.027 nM and the “NTERA-2 Span (%)” value stood at 98%. Also, in series [2] (setting [9]), the concentration giving a half-maximal response (EC50) was 0.3 nM and the “MCF-7 Span” value was found to be 85%. In series [2] (setting [10]), the EC50 stood at 0.25 nM and the “MCF-7 Span (%)” value was 85%.

B1: SRP2196-A07 (antibody, V domains shown)
VH: EVQLVESGGGLVQPGGSLRLSCAASGFNITGYYIHWVRQAPGKGLEWVGQISPNSGSTYYADSVKGRFTISADTSKNTAYLQMSSLRAEDTAVYYCARDSRRYVRGWDYWGQGTLVTVSS
VL: QAVVTQESALTTSPGETVTLTCRSSTGAVTTSNYANWVQEKPDHLFTGLIGGTNKRAPGVPARFSGSLIGDKAALTITGAQTEDEAIYFCALWYSNLWVFGGGTKLTVL
For B1, the “TM2 (° C.)” value in series [3] came to 74 °C. For the same molecule, the “ROR1/ROR2 ELISA ratio” value in series [4] came out at 16.3. Moreover, in series [5], the “Biacore human ROR1-Fz ka” value came to 186000 M⁻¹ s⁻¹ and the “Biacore human ROR1-Fz kd” value is 0.00064 s⁻¹.

B2: SRP2196-B01 (antibody, V domains shown)
VH: B1 VH with S57Y, A79T, S84N, G106S
VL: B1 VL
As to B2, the “TM2 (° C.)” value in series [3] was 75 °C. Besides, the “ROR1/ROR2 ELISA ratio” value in series [4] amounted to 17.2. Moreover, in series [5], the “Biacore human ROR1-Fz ka” value came out at 131000 M⁻¹ s⁻¹ and the “Biacore human ROR1-Fz kd” value was 0.000401 s⁻¹.

B3: SRP2196-A09 (antibody, V domains shown)
VH: B1 VH with S57A, Y59H, S84N, V104I, G106S
VL: B1 VL
As to B3, in series [3], the “TM2 (° C.)” value stood at 75 °C. Besides, the “ROR1/ROR2 ELISA ratio” value in series [4] worked out at 20.1. Further, in series [5], the “Biacore human ROR1-Fz ka” value is 150000 M⁻¹ s⁻¹ and the “Biacore human ROR1-Fz kd” value worked out at 0.000568 s⁻¹.

B4: SRP2196-B03 (antibody, V domains shown)
VH: B1 VH with V12A, Q50Y, S57A, Y59H, S84N, G106P, W107F
VL: B1 VL
As for B4, the “TM2 (° C.)” value in series [3] turned out to be 71 °C. Also, the “ROR1/ROR2 ELISA ratio” value in series [4] stood at 22.8. Further, in series [5], the “Biacore human ROR1-Fz ka” value came out at 124000 M⁻¹ s⁻¹ and the “Biacore human ROR1-Fz kd” value amounted to 0.000945 s⁻¹.

B5: 1987-C05 HC w/hSP34 LC3: HC of lead antibody 1987-C05 co-expressed with the LC of anti-CD3 antibody "hSP34-LC3" (antibody, V domains shown)
VH: EVQLVESGGGLVQPGGSLRLSCAASGFNISDYDIHWVRQAPGKGLEWVGGIDPDDGSTDYADSVKGRFTISADTSKNTAYLQMNSLRAEDTAVYYCARDYGVFDYWGQGTLVTVSS
VL: QTVVTQEPSLTVSPGGTVTLTCGSSTGAVTSGYYPNWFQQKPGQAPRGLIGGTKFLAPGTPARFSGSLLGGKAALTLSGVQPEDEAEYYCALWYSNRWVFGGGTQLTVTG
Turning to B5, in series [6] (setting [11]), the KD result is “Not detected”. Also, the “KD (SPR binding kinetics)” value in series [6] is reported as “no detectable binding”.

B6: 1987-C05 HC w/hUCHT1 LC3: HC of lead antibody 1987-C05 co-expressed with the LC of anti-CD3 antibody "hUCHT1-LC3" (antibody, V domains shown)
VH: B5 VH
VL: DIQMTQSPSTLSASVGDRVTITCRASQDIRNYLNWYQQKPGKAPKLLIYYTSRLHSGVPSRFSGSGSGTEYTLTISSLQPDDFATYYCQQGNTLPWTFGGGTKVEIK
In the case of B6, in series [6] (setting [11]), the ka1 was found to be 566000 M⁻¹ s⁻¹ and the kd1 was 0.000645 s⁻¹.

B7: 1987-C05 HC w/hOKT3 LC1: HC of lead antibody 1987-C05 co-expressed with the LC of anti-CD3 antibody "hOKT3-LC1" (antibody, V domains shown)
VH: B5 VH
VL: DIQMTQSPSSLSASVGDRVTITCSASSSVSYMNWYQQKPGKAPKRLIYDTSKLASGVPSRFSGSGSGTEYTLTISSLQPEDFATYYCQQWSSNPFTFGQGTKLEIK
Consider B7, for which the KD entry in series [6] (setting [11]) is listed as “Not detected”. The “KD (SPR binding kinetics)” value in series [6] was “no detectable binding”.
